Experimental findings from the domain aggregation screens of Martell et al. (2025) are described below.

This data set is described as follows: soluble fraction after stress (log2 fold change); higher = more stays soluble; pooled small domains, quantitative proteomics. The conditions noted are these: stress: 50 degC. The method, boiled down:
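After stress at 50°C, the amount of each protein still soluble was measured. This was done on pooled custom libraries of small protein domains, using high-throughput quantitative proteomics. The figure given is a base-two log fold change and stands for aggregation propensity, with higher values meaning more protein stays in solution.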
Turning to “HMSAETRSWTDAQGNQTQAVLRGFDGGDVLLQNAAGKTLRVPVKNLSEDDQRYVVLNISTLID”, the “soluble fraction (log2)” value was found to be 0.0786. Consider “HMTAQGDSSDAVQRAITEILRHEDPSHPFSDQQLVIKLRTMDISVSRRTVTKYRKLLHIPSSTHRK”, for which the “soluble fraction (log2)” value is -2.74. The value for “HMTAPELSVGDYLEYRGKEYKVESLDMDGFITLTDTALEDAPRLISRVTFLTDEFIRSGEYMVIT” was -0.169; that for “HMHEYSRIYQQQWWDNATGADAYHVIHSARSRAAQDPEAARALEYLEEQFRIRYGVRTEDFLGYLHD” was -0.411. The value for “HMKDGMRVYITYHDSEEEPEKPIGDGTTKGWHTNSTASVVWISQKVAESADLGIWGDPIRIKGEA” was -0.14; that for “HMVKLDDLTGQDKATAEATITNSGLKYSEQQEFSDEVEAGKVIRTDPGAGTSSLKAGDTVTVYVSRGPEN” was -0.0778. The value for “HMNDLIKMPYLVGQLYDDVASNQEYADFQFKITEGNDPDKQPGEIMKQDPAADIMVKKNAEVELLVNG” was 0.247; that for “HMNPSPYLRRHLSGDWGDLDEDDRRSNDAALASGEARLLSSYQVDPDLKLWIITEWDRSVTTLLLPSE” was -0.0802. Turning to “HMENEIVMPVQINGKKRGDLTIARDADQASIQKAVLELDFVKAALNGGSPKKVIVVPQRIVNVV”, the “soluble fraction (log2)” value is 0.325. With “HMKNLKLVSNTDGIRIDSWLADEFEDYSRSYLRKLIDQDLVYVNGNKIKANYKLKKGDEISISIPEPE” the figure was 0.142. For “HMDALIWYVSRGQQKFGPFNYFGVLKALQDKSVFEFDYVWKEGTENWVRLAEHELFSQEKVRELLA”, the “soluble fraction (log2)” value is -0.203. The value for “HMLSDAAAMESIAYEAIRQMEPDTYYIIGAGTTTRGIMEVLGLKNTLIGVDLIRNKELVANDLGGKELLSY” was 0.0353; that for “HMAKKDVESTLGGRLRVARVRAGLTQVELARMLGMNSVSLSNVEGGRRGLSMKQLVRVAKILEVPVAYLLG” was -1.65. Turning to “HMNKQEFLNTLRIIFKKANVLDVESIIDVYEEHFAVGYEKGLNDEQIIKSLGTPKEIYTSYVEAGI”, the “soluble fraction (log2)” value was -0.615. The value for “HMSFSQNIGKRIREERLRLNLTQEKLAEDVNLSMAYIGQVERGDRSLTLDNLIIVAKRLGVTIDYLLS” was -1.25. With “HMQEKQIIDGREFYIHQVERGITLYSIAKQYNVKVADIQAENPFLEAGLQPGQTLKIPLDKVETVQEIK”, the “soluble fraction (log2)” value came to 0.125. On to “HMSLPTSDWKRALSLFDEALSLPPDARDAWLAHTIAREPAVSPLLQKLLGAHRRVETNDILATLPR”, for which the “soluble fraction (log2)” value was -0.286. Consider “HMQSQIAQLYNPLLGYVKKRINSREDAEDLTQDIFLKLSKSNKDGVDNLKSWLYTIAKNTITDYYRKKKII”, for which the “soluble fraction (log2)” value was found to be 0.15. The value for “HMGSEYPSNPLASRWAKGVRLYHDEWGYGVIQAARGSEPDDYVITVRFESGAEKSFLPKFQAHSLMIVKD” was -0.161; that for “HMAEELELFHRLISVTGVGPKGALGFLSQLKPQEIILAILSDDVKTLSKAPGVGRKTAQRVILELKDKF” was -1.14. The value for “HMKLTKPQEVFIQELLKGSSQYEAYLKAYPSKKTWKRNSIDTEASKLFKNAKIKQRYEELLYNIREE” was -0.167; that for “HMEPDEYTVRQAFMKFDVGGEGRVPRDKLKALLETLGLELSAQQVRESEEQLDPEGTGFTSYGDFLMWWN” was -1.12. The value for “HMSFSPYLVRVSITDLNIRKGPGTNYAKTGKFTGKGVFTIVEMQTGKGSDTGWGRLKSGAGWISLDYTEKI” was -3; that for “HMGDPEYFKKQLGDFMDRFNITSEDIKNLSIAGAINRMMNNAEGEDKTVLSKLLETVNKSGVGNLPAKTI” was 0.0622; that for “HMNPTTQIQYNLPKSEFVSIYIYDLIGNRVKSLINNYQDAGYKSVYWDAMNDLGQPVSAGMYIY” was -0.134. “HMKSARQIAILEIIAEKSIETQEDLADALRLRGFQVTQATVSRDIKELRLVKALAPDGTYRYATAEK”: the “soluble fraction (log2)” value is -0.0157. The value for “HMVSGSPTVDILMQRGLEYQQQENLEAARDAFDRAINLKPDYAEAWNRRAVLFFNEGKYDEAIADLETAIT” was 0.077. With “HMQQQLLHIVFGGELKDVTGIEFEDLSKMDFVGAFSNYKDAYDAWKSAAQRTVDHAEMRYFILHAHKLL” the figure was -5.48.

Turning to “HMIGHIGSAVMLNAKLRPRLPLLHVLALTQSLGERLSAAEAQPEVYRWSDPGQSRVIAEFEGGRLTRWRLE”, the “soluble fraction (log2)” value was -2.09. In the case of “HMDIINLADNIARLRRRRQITQEELADYLGVTKAAVSKWENRQTMPDILLLPRLAGLFEVTIDELVGY”, the “soluble fraction (log2)” value is -1.42. With “HMSAPAKKPKIKVDLSKVHAGTIVRHKGYGLGQVKGIDGAIIVVTFDGVDKKFQFPGGFENGFLFLTED” the figure was -0.0311. Regarding “HMDENILKTRIEDLDLSVRTIKALTGASIRTVSGLARKKESDLLEISGLGDKGIQEIKRALGSLGITL”, the “soluble fraction (log2)” value is 0.0868. The value for “HMSVTSIEGRVVYDENANKIGIAKQVGIDSTQSMVLVLTKNDGTEGSISWNNIKKIGEIILLGN” was -0.369; that for “HMERLKYSQVVDLFKGEQVKSFVLDESNQLKMELQDGSTVSYKLRSFEQFYLDLSDTVKEQKESGIITDYD” was -0.746; that for “HMELRSPMPGLIIEIPVSKGDIIKKDQSLIILEAMKMENVLTSPINGKIADIKVNVQDTVEKNNLLITFEN” was -0.164. On to “HMAKSETAKIKATPYGWLRVRDTPSLNGAEIARVNSGDEYKVLEKETGWIKIKVSDTVEGWVSDAYIELS”, for which the “soluble fraction (log2)” value is -0.0312. Consider “HMSEYITEGWLREKFGLGWGTEVHLPLDSRLTPAAHQLLEERKIVIKYIDAEGRVFNPDKSGEEAPVQ”, for which the “soluble fraction (log2)” value amounted to 0.0587.

In the case of “HMRNTETMKEIQAFVEDYFFEYHQSPSMQKVADAIGTSKSTAYYYVMEMARNGMLHYDGKTIETPHTQKS”, the “soluble fraction (log2)” value is -1.09.

“HMREKPRETFQRIAEKVGQTLRKGPVRVQQMDLLFSESREQVMEVLRAMAESGEIRIQDDTLHWNGHT”: the “soluble fraction (log2)” value was 0.311. Regarding “HMGGAVQIAEQIAARIKDGALRPGELLPPVRQLAAELEVNPNTVASAYARLRDAGLVATRGRAGTVVLEPP”, the “soluble fraction (log2)” value was -0.172. With “HMTVPNVVGQRILAAQDILKNLGLKVLVDTNLPNSQWGLRNVKSTNPGAGAVVRVGDTVTLIAR” the figure was 0.0114. The value for “HMTQSQSLQSQFEQLEKAYQDNLHLLSPKQKLIIQEAGKIIQQLPQQAQIQAKVNLYQSLSAEISKESQQ” was 0.118; that for “HMAPQVKIPNLVDVSQRQAEAILNSYGLKVGHLIYKPDLAKDAVLGFMFNGRSLKAGDELAKGSSIDLILG” was -0.097.

Turning to “HMENTIESLLKAKGFNDIIVTVSDKQVDVVVSDKEIADNKRAQIEDVIKRKTGLEASAITITPA”, the “soluble fraction (log2)” value is 0.0688. For “HMPKETFLNLDEEKRQAIINVLLKNFSEQHISQVKVSAIVSGIGMSRGAFYKYFEDLEDAYRFTISYFSA”, the “soluble fraction (log2)” value was -0.0102.

Take “HMWTPLVVAVLIGGTHRFGELRAAVGGITPKVLTETLRSMERDGLVVREQTPGVPPRVDYALTPLGA”: the “soluble fraction (log2)” value is -0.319. Turning to “HMALDLPVKRVKGKEYYYYKVKKGESLYGISKHLGLPLDSIVKSNPSVADGVRKGDMLLFPLEEYT”, the “soluble fraction (log2)” value was -0.307.

“HMADYYSILGLTKNATDIEIKSAFRKLAKIYHPDKNPDPNARVLFEHILKAYDTLINPHSRRRYDSL”: the “soluble fraction (log2)” value is -0.349. The value for “HMGTPLYLLLAAEVRDRIATEQLAPHTAVPSERELAELHGVSRMTARQALALLESEGLVYRNPPRGTFVAE” was -0.85; that for “HMDIDGVSENGRLILAALDKEALDFDTLAAETGIQESRLRTELTLLEIRKLIMKLPGQRYRLI” was 0.0016. With “HMPPNPELGKKLLKLRKEFKMTQDDVANILGMSRTSFSKYENGIANPPLQVMRKLASIYNVGLEYLI” the figure was -1.04; with “HMPELSPEERAIIETLQKNNDLQVNIIAIKTGMDMGSLSAVLFDLEMKGLVKLLAGGMYHLI”, -0.148; with “HMATVIDVATTLGRPITDPDEQRQVLNWIGKTERIISARLGDLAALDRQILADVISEVVARRARN”, -0.4. For “HMSTINGIEKYLSSGLIPYIGPKTAKRIVEKFGLDTLEIIQYNPERLKEIEGIGDKKLKKIVEAFEEQG”, the “soluble fraction (log2)” value was -0.102. The value for “HMDVLFGNRLRQLLDERNISQAHFADRIGVSRSRMNNYVAQRSEPDYATLIRIANTLDTSIDFLLGKS” was -1.93. For the sequence “HMYMKMNDRIRSRRKELKMTQSVLAKLVGVNRVTITGWESGDYKPGGENLQALAAALEKTPQWLLDGKD”, the “soluble fraction (log2)” value was -0.996. “HMERPSLDQVLAHAKALGIAPARFVAYADGRWGTGWRLSPHGRARAWEELDRHRNDPLGYRDKLDVALQSG”: the “soluble fraction (log2)” value is -0.0254.

In the case of “HMYRIGELAKLADVTPDTIRYYEKQQMMDHDVRTEGGFRLYSDNDLQRLKFIRYARQLGFTLEAIRELLSI”, the “soluble fraction (log2)” value is -1.81.

As for “HMKEIGGGPASKFIYYLIKTKHPIEQGDLIGITHLPRRTVQSAIEDLKNQGFIIERNSLDDSRRKVYYPVK”, the “soluble fraction (log2)” value is 0.000762.

Turning to “HMKDESYALGTRLLSHALGKTKLEDLAQEKIDEVVQQSGNKTLEQLLTNIGLGNALSIGIARQLT”, the “soluble fraction (log2)” value was 0.383. As for “HMEIKDQADAYGKMEPASAAAILSEMTNDLTLVAKILDSMQTSKSALILQNMKPTTAAQVTTKMTAMK”, the “soluble fraction (log2)” value was determined as 0.0219.

“HMPKDMAKRASILTAASKLFVQHGYGGVSMDQIAAEAGVSKLTVYSHYGDKDSLFAAAVQAH”: the “soluble fraction (log2)” value was -0.328. With “HMAYSEEDRRRVREELLTTALKLMSTQGIQHTTVEQVYRSVGISRSFFYAFFPTKEDLIVEAL” the figure was 0.117; with “HMDKEPTHLHTFRLIKEGKSSEEIAEIRNITLGTVNTHLAKLIAVGELTIEQVISKHRLDYVMEAIKNSK”, -0.16; with “HMTRHIQVNDSIASTPIEDVYFSTRTYNALLNNGISVIGDLSKYTHDDLYASFQGLGRAGVLEIEAYLRQD”, -1.53. Take “HMGTTTPPATRKGKVTSSFLNVRSGPSTANAKVAELKQNAVVTIYETSSNGWHRIGVNQWVIGTNIQE”: the “soluble fraction (log2)” value is -0.441. The value for “HMTQNSAITNRVLYMQRTLRQYGYAVPESGNFDRTTRAHAAEFLYNATGLPVRENQSVQEFYRAFQRVQG” was -0.981. The value for “HMEPVTETVYAMDTVNIRAAADQTSEKIGSVTVGTALTRTGTDGDWSIIDYNGTTGYVKSEFLSNTAPEV” was -0.00262.
